{"source": "patent US20050256044A1", "key": {"[1]": {"biological_target": "V5His6-tagged polypeptide of human GIPF (GIPFt) (human)", "sequence (chain, as listed by the source limits assumed)": "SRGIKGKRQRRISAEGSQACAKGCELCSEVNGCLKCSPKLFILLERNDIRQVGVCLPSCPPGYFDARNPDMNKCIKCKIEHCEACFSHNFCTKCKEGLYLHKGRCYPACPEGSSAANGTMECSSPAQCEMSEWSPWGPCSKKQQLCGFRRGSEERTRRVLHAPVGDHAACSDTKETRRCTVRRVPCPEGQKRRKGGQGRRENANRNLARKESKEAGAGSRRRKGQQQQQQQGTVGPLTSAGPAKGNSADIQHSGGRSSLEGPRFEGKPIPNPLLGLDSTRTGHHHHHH", "assay": "cell-based or functional assay"}, "[2]": {"biological_target": "human wild type, full-length GIPF polypeptide (GIPFwt) (human) (UniProt Q2MKA7)", "sequence (Q2MKA7 21-263 limits assumed)": "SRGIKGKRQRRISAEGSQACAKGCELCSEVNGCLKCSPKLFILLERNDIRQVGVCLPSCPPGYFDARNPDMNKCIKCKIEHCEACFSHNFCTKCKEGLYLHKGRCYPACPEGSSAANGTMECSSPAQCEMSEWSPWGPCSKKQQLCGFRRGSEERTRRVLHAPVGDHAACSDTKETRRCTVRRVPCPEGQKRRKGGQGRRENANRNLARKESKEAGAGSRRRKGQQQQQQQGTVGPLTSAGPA", "assay": "cell-based or functional assay"}}, "data": [{"substance": "furin protease (from UniProt P09958 108-794) (enzyme)", "values": [{"measurement": "N-terminal sequence analysis of protein from HEK293 cells; ratio of mature to dominant mature forms (ratio mature:dominant mature)", "setting": "[1]", "value": 0.5}, {"measurement": "N-terminal sequence analysis of protein from HEK293 cells; ratio of mature to dominant mature forms (ratio mature:dominant mature)", "setting": "[2]", "value": 0.5}]}]}
